Test results taken from US20160193299A1, “MODIFIED NUCLEOSIDE, NUCLEOTIDE, AND NUCLEIC ACID COMPOSITIONS” (Moderna Therapeutics, Inc., priority 2011, published 2016).

Tested on: G-CSF
Assay: Examples 21-22 non-human primate in vivo study, serum G-CSF ELISA
Design: species or system cynomolgus monkey
Settings: for Average Serum Conentration: G-CSF
Experimental: Formulations, listed in Table 31, were characterized by particle size, zeta potential, and encapsulation.
LNP formulations, shown in Table 31 (above), were administered to non-human primates (NHP) (cynomolgus monkey) (n=2) as a bolus intravenous injection (IV) over approximately 30 seconds using a hypodermic needle, which may be attached to a syringe/abbocath or butterfly if needed. The NHP were administered a single modified mRNA IV dose of 0.05 mg/kg of EPO or G-CSF or 0.005 mg/kg of EPO in a dose volume of 0.5 mL/kg. The NHPs were bled 5-6 days before dosing with the modified mRNA LNP formulations to determine protein expression in the serum and a baseline complete blood count. After administration with the modified mRNA formulation the NHP were bled at 8, 24, 48 and 72 hours to determined protein expression. At 24 and 72 hours after administration the complete blood count of the NHP was also determined. Protein expression of G-CSF and EPO was determined by ELISA. Urine from the NHPs was collected over the course of the entire experiment and analyzed to evaluate clinical safety. Samples were collected from the NHPs after they were administered with G-CSF or EPO modified mRNA formulations to determine protein expression using ELISA. Clinical chemistry, hematology, urinalysis and cytokines of the non-human primates were also analyzed.
LNP formulations, shown in Table 31 (above), were administered to non-human primates (NHP) (cynomolgus monkey) (n=2) as intravenous injection (IV). The NHP were administered a single modified mRNA IV dose of 0.5 mg/kg, 0.05 mg/kg or 0.005 mg/kg of G-CSF or EPO in a dose volume of 0.5 mL/kg. The NHPs were bled before dosing with the modified mRNA LNP formulations to determine protein expression in the serum and a baseline complete blood count. After administration with the G-CSF modified mRNA formulation the NHP were bled at 8, 24, 48 and 72 hours to determined protein expression. After administration with the EPO modified mRNA formulation the NHP were bled at 8, 24, 48, 72 hours and 7 days to determined protein expression.
Samples collected from the NHPs after they were administered with G-CSF or EPO modified mRNA formulations were analyzed by ELISA to determine protein expression. Neutrophil and reticulocyte count was also determined pre-dose, 24 hours, 3 days, 7 days, 14 days and 18 days after administration of the modified G-CSF or EPO formulation.

B1: G-CSF: human G-CSF mRNA SEQ ID NO: 6, polyA ~160 nt, Cap1, fully modified with 5-methylcytosine and pseudouridine (nucleic acid, listed as Homo sapiens)
chain: GGGAAAUAAGAGAGAAAAGAAGAGUAAGAAGAAAUAUAAGAGCCACCAUGGCCGGUCCCGCGACCCAAAGCCCCAUGAAACUUAUGGCCCUGCAGUUGCUGCUUUGGCACUCGGCCCUCUGGACAGUCCAAGAAGCGACUCCUCUCGGACCUGCCUCAUCGUUGCCGCAGUCAUUCCUUUUGAAGUGUCUGGAGCAGGUGCGAAAGAUUCAGGGCGAUGGAGCCGCACUCCAAGAGAAGCUCUGCGCGACAUACAAACUUUGCCAUCCCGAGGAGCUCGUACUGCUCGGGCACAGCUUGGGGAUUCCCUGGGCUCCUCUCUCGUCCUGUCCGUCGCAGGCUUUGCAGUUGGCAGGGUGCCUUUCCCAGCUCCACUCCGGUUUGUUCUUGUAUCAGGGACUGCUGCAAGCCCUUGAGGGAAUCUCGCCAGAAUUGGGCCCGACGCUGGACACGUUGCAGCUCGACGUGGCGGAUUUCGCAACAACCAUCUGGCAGCAGAUGGAGGAACUGGGGAUGGCACCCGCGCUGCAGCCCACGCAGGGGGCAAUGCCGGCCUUUGCGUCCGCGUUUCAGCGCAGGGCGGGUGGAGUCCUCGUAGCGAGCCACCUUCAAUCAUUUUUGGAAGUCUCGUACCGGGUGCUGAGACAUCUUGCGCAGCCGUGAAGCGCUGCCUUCUGCGGGGCUUGCCUUCUGGCCAUGCCCUUCUUCUCUCCCUUGCACCUGUACCUCUUGGUCUUUGAAUAAAGCCUGAGUAGGAAG
modifications: polyA ~160, Cap1, 5mC/pseudouridine modified
Female NHP Serum G-CSF Concentration (IV 0.005 mg/kg, 8 hours): 559 pg/mL | Male NHP Serum G-CSF Concentration (IV 0.005 mg/kg, 8 hours): 700 pg/mL | Female NHP Serum G-CSF Concentration (IV 0.005 mg/kg, 24 hours): 155 pg/mL | Male NHP Serum G-CSF Concentration (IV 0.005 mg/kg, 24 hours): <39 pg/mL | Female NHP Serum G-CSF Concentration (IV 0.005 mg/kg, 48 hours): <39 pg/mL | Male NHP Serum G-CSF Concentration (IV 0.005 mg/kg, 48 hours): <39 pg/mL | Female NHP Serum G-CSF Concentration (IV 0.005 mg/kg, 72 hours): <39 pg/mL | Male NHP Serum G-CSF Concentration (IV 0.005 mg/kg, 72 hours): <39 pg/mL | Female NHP Serum G-CSF Concentration (IV 0.005 mg/kg, Pre-bleed): <39 pg/mL | Male NHP Serum G-CSF Concentration (IV 0.005 mg/kg, Pre-bleed): <39 pg/mL | Female NHP Serum G-CSF Concentration (IV 0.05 mg/kg, 24 hours): 722 pg/mL | Male NHP Serum G-CSF Concentration (IV 0.05 mg/kg, 24 hours): 307 pg/mL | Female NHP Serum G-CSF Concentration (IV 0.5 mg/kg, 8 hours): 43,525 pg/ml | Male NHP Serum G-CSF Concentration (IV 0.5 mg/kg, 8 hours): 43,594 pg/ml | Female NHP Serum G-CSF Concentration (IV 0.5 mg/kg, 24 hours): 11,374 pg/ml | Male NHP Serum G-CSF Concentration (IV 0.5 mg/kg, 24 hours): 3,628 pg/ml | Female NHP Serum G-CSF Concentration (IV 0.5 mg/kg, 48 hours): 1,100 pg/ml | Male NHP Serum G-CSF Concentration (IV 0.5 mg/kg, 48 hours): 833 pg/mL | Female NHP Serum G-CSF Concentration (IV 0.5 mg/kg, 72 hours): <39 pg/mL | Male NHP Serum G-CSF Concentration (IV 0.5 mg/kg, 72 hours): 306 pg/mL | Female NHP Serum G-CSF Concentration (IV 0.5 mg/kg, Pre-bleed): <39 pg/mL | Male NHP Serum G-CSF Concentration (IV 0.5 mg/kg, Pre-bleed): <39 pg/mL | Average Serum Conentration (NHP, IV 0.05 mg/kg, 8 hours): 2,506 pg/ml | Average Serum Conentration (NHP, IV 0.05 mg/kg, 24 hours): 515 pg/mL | Average Serum Conentration (NHP, IV 0.05 mg/kg, 48 hours): 0 pg/mL | Average Serum Conentration (NHP, IV 0.05 mg/kg, 72 hours): 0 pg/mL | Average Serum Conentration (NHP, IV 0.05 mg/kg, Pre-bleed): 0 pg/mL | G-CSF protein expression seen out to (NHP, IV 0.05 mg/kg): 24 h | G-CSF protein expression not detected beyond (NHP, IV 0.5, 0.05, 0.005 mg/kg (Table 36)): ≤ 72 h
